Test results published in paper PMC5156911, “Structural implications of Ca^2+-dependent actin-bundling function of human EFhd2/Swiprosin-1” (Scientific Reports, 2016).
No end group written: not given here.

Target: the molecule itself
Experiment: cross-linking; disulfide cross-linking of engineered terminal Cys residues; purified fragments on SDS-PAGE under non-reducing conditions (only a monomer band under reducing conditions)

Row | Protein | stoichiometry N
1 | CGGQAINVSSRFEEEIKAEQEERKKQAEEMKQRKAAFKELQSTFK (domain or fragment, human, engineered CysGlyGly at the N-terminus of the fragment; human EFhd2/Swiprosin-1 predicted coiled-coil domain, residues 199-240; source: E. coli, purified (pGEX-4T-1; GST removed by thrombin); not shown: GST, N-terminal, cleaved) [CC1: EFhd2 coiled-coil domain (residues 199-240) with CysGlyGly at the N-terminus] | 2
2 | QAINVSSRFEEEIKAEQEERKKQAEEMKQRKAAFKELQSTFKGGC (domain or fragment, human, also: disulfide-linked dimer via Cys, human EFhd2/Swiprosin-1 predicted coiled-coil domain, residues 199-240; engineered GlyGlyCys at the C-terminus of the fragment; source: E. coli, purified (modified pET-21a, same procedure as the other EFhd2 proteins); not shown: His6, N-terminal, kept) [CC2: EFhd2 coiled-coil domain (residues 199-240) with GlyGlyCys at the C-terminus] | 2
